The record followed here is patent US20210171616A1 (Eli Lilly, published 2021).

One test concerns the target T1, PACAP38 (human, K at residue 38 modified by C-terminal amidation).
T1 peptide: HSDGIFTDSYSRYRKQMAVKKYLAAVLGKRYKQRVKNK
The test can be described thus: cell-based or functional assay.

For a further test, the target named is T2, PACAP27 (human, L at residue 27 modified by C-terminal amidation).
T2 peptide: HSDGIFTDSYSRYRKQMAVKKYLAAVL
The test can be described thus: cell-based or functional assay.

In the test with PACAP38, IgG4 mAb (negative control) (antibody) had a Percentage tryptase release in human mast cells upon addition of 1 uM PACAP38; negative control antibody, single point of 104%; a Percentage tryptase release upon addition of PACAP38; negative control antibody dose 153 uM of 79.6%; a Plasma cAMP levels in CD-1 mice after iv PACAP38 (13 nmols/kg); control antibody 10 mg/kg sc of 4.09 µM. Further, in the test with PACAP27, the Percentage tryptase release in human mast cells upon addition of 1 uM PACAP27; negative control antibody, single point was 110% and the Percentage tryptase release upon addition of PACAP27; negative control antibody dose 153 uM is 94.8%.
